Assay results taken from US20190322748A1 (Hoffmann-La Roche, published 2019).
Like-named read-outs stand apart in the source and are kept apart here.

B1: Tim3_0026 (antibody, V domains shown)
VH: QIQLVQSGPELKKPGETVKISCKASGYTFTDYSMHWVKQAPGRGLKWMGYINTETYEPTFGADFKGRFAFSLDTSATTAYLQINSLKTEDTATFFCGGGGYPAYWGQGTVVIVSA
VL: DVLMTQTPLSLPVSLGDQASISCRSSRTILHSSGNTYLEWYLQKPGQSPKLLIYKVSNRFSGVPDRFSGSGSGTDFTLNISRVEAEDLGVYYCFQDSHVPFTFGTGTKLEIK
B2: Tim3_0033 (antibody, V domains shown)
VH: QGQMHQSGAELVKPGSSVKLSCKTSGFTFSSSFISWLKQKPGQSLEWIAWIYAATGSTSYNQKFTNKAQLTVDTSSSAAYMQFSSLTTEDSAIYYCARHAGYPHYYAMDYWGQGTSVTVSS
VL: DIQMTQSPASLSASVGETVTITCRASENIFSNLAWYQQKQGKSPQLLVYSATNLGDGVPSRFSGSGSGTQFSLKINSLQPEDFGNYYCQHFYKIPFTFGTGTKLEIK
B3: 2+2 PD1TIM3_0358 (chimeric PD1-0103 / Tim3-0028) (bispecific antibody, human IgG1, kappa, L234A L235A)
heavy: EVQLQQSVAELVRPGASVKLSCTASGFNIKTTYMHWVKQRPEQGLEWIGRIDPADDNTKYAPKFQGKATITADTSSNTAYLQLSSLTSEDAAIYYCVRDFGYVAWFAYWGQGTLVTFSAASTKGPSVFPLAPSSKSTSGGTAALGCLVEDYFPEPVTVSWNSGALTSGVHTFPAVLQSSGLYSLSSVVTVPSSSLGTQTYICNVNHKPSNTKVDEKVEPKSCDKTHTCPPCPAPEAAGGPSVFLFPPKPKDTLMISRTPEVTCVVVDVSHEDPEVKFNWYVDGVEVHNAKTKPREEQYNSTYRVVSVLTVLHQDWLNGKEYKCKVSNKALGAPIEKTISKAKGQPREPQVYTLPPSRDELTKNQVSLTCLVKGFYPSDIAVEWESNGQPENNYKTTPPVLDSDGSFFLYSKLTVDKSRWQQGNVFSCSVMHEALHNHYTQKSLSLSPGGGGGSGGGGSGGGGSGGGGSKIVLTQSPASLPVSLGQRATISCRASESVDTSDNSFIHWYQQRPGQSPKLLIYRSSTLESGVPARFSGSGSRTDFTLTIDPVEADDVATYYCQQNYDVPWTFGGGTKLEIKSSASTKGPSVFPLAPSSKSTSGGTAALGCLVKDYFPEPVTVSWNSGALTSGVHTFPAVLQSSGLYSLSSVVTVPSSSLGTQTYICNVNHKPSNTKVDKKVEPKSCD
light 1: NIVMTPTPKFLPVSSGDRVTMTCRASQSVDNYVAWYQQKPGQSPKLLIYYASNRYIGVPDRFTGSGSGTDFTFTISSVQVEDLAVYFCQQHYSSPYTFGSGTKLEIKRTVAAPSVFIFPPSDRKLKSGTASVVCLLNNFYPREAKVQWKVDNALQSGNSQESVTEQDSKDSTYSLSSTLTLSKADYEKHKVYACEVTHQG
light 2: EVILVESGGGLVKPGGSLKLSCAASGFSFSSYTMSWVRQTPEKRLDWVATISGGGRDIYYPDSVKGRFTISRDNAKNTLYLEMSSLMSEDTALYYCVLLTGRVYFALDSWGQGTSVTVSSASVAAPSVFIFPPSDEQLKSGTASVVCLLNNFYPREAKVQWKVDNALQSGNSQESVTEQDSKDSTYSLSSTLTLSKADYEKHKVYACEVTHQGLSSPVTKSFNRGEC
notes: also called PD1TIM3-0358 (2 + 2); Bispec AB 0358 (2+2)
B4: Tim3_0021 (antibody, V domains shown)
VH: QVQLQQSGPQLVRPGASVQISCKASGYSFTSYLLHWLKQRPGQGLEWIGMIDPSDSETRLNQKFKDKATLTVDKSSSTAYMQLSSPTSEDSAVYYCARDGYYAWYYFDCWGQGTTLTVSS
VL: DIVLTQSPATLSVTPGDRVSLSCRASQSIGNNLHWYQQKSHESPRLLIKYASHSISGIPSKFSGTGSGTDFTLSFNSVETEDFGMYFCQQSNSWPLTFGAGTKLELK
B5: PD1-0103-0312 (antibody, human IgG1, V domains shown)
VH: EVQLLESGGGLVQPGGSLRLSCAASGFSFSSYTMSWVRQAPGKGLEWVATISGGGRDIYYPDSVKGRFTISRDNSKNTLYLQMNSLRAEDTAVYYCVLLTGRVYFALDSWGQGTLVTVSS
VL: DIVMTQSPDSLAVSLGERATINCKASESVDTSDNSFIHWYQQKPGQSPKLLIYRSSTLESGVPDRFSGSGSGTDFTLTISSLQAEDVAVYYCQQNYDVPWTFGQGTKVEIK
notes: Humanized
B6: PD1-0103-0315 (antibody, human IgG1, V domains shown)
VH: B5 VH
VL: EIVLTQSPATLSLSPGERATLSCRASESVDTSDNSFIHWYQQKPGQSPRLLIYRSSTLESGIPARFSGSGSGTDFTLTISSLEPEDFAVYYCQQNYDVPWTFGQGTKVEIK
notes: Humanized
B7: PD1-0103-0313 (antibody, human IgG1, V domains shown)
VH: B5 VH
VL: DVVMTQSPLSLPVTLGQPASISCRASESVDTSDNSFIHWYQQRPGQSPRLLIYRSSTLESGVPDRFSGSGSGTDFTLKISRVEAEDVGVYYCQQNYDVPWTFGQGTKVEIK
notes: Humanized
B8: PD1-0103-0314 (antibody, human IgG1, V domains shown)
VH: B5 VH
VL: B6 VL
notes: Humanized
B9: 1+1 PD1TIM3_0476 (based on humanized PD1-0103_0312 / Tim3-0438) (bispecific antibody, human IgG1, kappa, L234A L235A)
heavy 1: not shown
heavy 2: EVQLVESGGGLVQPGGSLRLSCAASGFNIKTTYMHWVRQAPGKGLEWVGRIDPADDNTKYAPKFQGKATISADTSKNTAYLQMNSLRAEDTAVYYCVRDFGYVAWFAYWGQGTLVTVSSASTKGPSVFPLAPSSKSTSGGTAALGCLVEDYFPEPVTVSWNSGALTSGVHTFPAVLQSSGLYSLSSVVTVPSSSLGTQTYICNVNHKPSNTKVDEKVEPKSCDKTHTCPPCPAPEAAGGPSVFLFPPKPKDTLMISRTPEVTCVVVDVSHEDPEVKFNWYVDGVEVHNAKTKPREEQYNSTYRVVSVLTVLHQDWLNGKEYKCKVSNKALGAPIEKTISKAKGQPREPQVCTLPPSRDELTKNQVSLSCAVKGFYPSDIAVEWESNGQPENNYKTTPPVLDSDGSFFLVSKLTVDKSRWQQGNVFSCSVMHEALHNHYTQKSLSLSPGK
light 1: EVQLLESGGGLVQPGGSLRLSCAASGFSFSSYTMSWVRQAPGKGLEWVATISGGGRDIYYPDSVKGRFTISRDNSKNTLYLQMNSLRAEDTAVYYCVLLTGRVYFALDSWGQGTLVTVSSASVAAPSVFIFPPSDEQLKSGTASVVCLLNNFYPREAKVQWKVDNALQSGNSQESVTEQDSKDSTYSLSSTLTLSKADYEKHKVYACEVTHQGLSSPVTKSFNRGEC
light 2: DIVMTQSPLSLPVTPGEPASISCRASQSVDNYVAWYLQKPGQSPQLLIYYASNRYIGVPDRFSGSGSGTDFTLKISRVEAEDVGVYYCQQHYSSPYTFGQGTKVEIKRTVAAPSVFIFPPSDRKLKSGTASVVCLLNNFYPREAKVQWKVDNALQSGNSQESVTEQDSKDSTYSLSSTLTLSKADYEKHKVYACEVTHQGLSSPVTKSFNRGEC
notes: 1+1 CrossMAb Vh-VL: HC1/LC1 form the crossed PD1 arm, HC2/LC2 the TIM3 arm; knobs into holes

Tests used:
[1] = target: T1, full-length human Tim3 on cells (CHO-K1 stably transfected with plasmid 15312_hTIM3-fl_pUC_Neo) (human, UniProt Q8TDQ0 22-301); test: cell ELISA on CHO-K1 cells with full-length human Tim3
T1 construct: Also used as the target of the MLR read-outs (native TIM-3); also called CHO-Tim3; CHO-TIM3

[2] = target: T1, full-length human Tim3 on cells (CHO-K1 …); test: cell-based or functional assay
[3] = target: T2, biotinylated PD1-ECD-AviHis (human, UniProt Q15116 25-170, biotinylated, site not stated); test: ELISA on coated biotinylated PD1-ECD-AviHis
T2 construct: also called huPD1; hu PD1

human PD1-ECD [4] = target: T3, human PD1-ECD (human, UniProt Q15116 25-170); test: SPR Biacore T200, Ab captured on anti-human Fc IgG, hu PD1-ECD in solution, 25 C
T3 construct: SPR analyte; also called hu PD1-ECD

[5] = target: T4, full-length human PD1 on cells (CHO-K1 stably transfected with plasmid 15311_hPD1-fl_pUC_Neo) (human, UniProt Q15116 25-288); test: cell-based or functional assay
monomeric human Tim3-ECD = target: T5, monomeric human Tim3-ECD (human, UniProt Q8TDQ0 22-202); test: SPR Biacore T200, Ab captured on anti-human Fab IgG, hu Tim3-ECD in solution, 25 C
T5 construct: SPR analyte; also called huTim3; hu Tim3-ECD

[6] = target: T6, biotinylated TIM3-ECD-AviHis (human, UniProt Q8TDQ0 22-202, biotinylated, site not stated); test: ELISA on coated biotinylated TIM3-ECD-AviHis
T6 construct: also called huTIM3; Hu TIM3

human PD1-ECD [7] = target: T3, human PD1-ECD; test: SPR Biacore T200, Ab captured on anti-human IgG, 25 C
human PD1-ECD [8] = target: T3, human PD1-ECD; test: SPR; row head 'Affinity KD 37°C [nM] *)', first of two values, footnote not explained
[9] = target: T7, biotinylated cynoPD1-ECD-Biotin (cynomolgus); test: ELISA on coated cynoPD1-ECD-Biotin
T7 construct: extracellular domain; also called cyPD1

[10] = target: T7, biotinylated cynoPD1-ECD-Biotin; test: ELISA, cynomolgus cross-reactivity
human PD1-ECD [11] = target: T3, human PD1-ECD; test: SPR; row head 'Affinity KD 37°C [nM] *)', second of two values (equals the 25 C value of Table 9)
[12] = target: T4, full-length human PD1 on cells (CHO-K1 …); test: cell ELISA on CHO-K1 cells with full-length human PD1
[13] = target: T2, biotinylated PD1-ECD-AviHis; test: ELISA on coated biotinylated PD1-ECD-AviHis; remark: listed apart in the source
[14] = target: T2, biotinylated PD1-ECD-AviHis; test: ELISA on coated biotinylated PD1-ECD-AviHis; remark: listed apart in the source
[15] = target: T8, Tim3-CLIP (on transiently transfected HEK293 cells) (human, CLIP-tag labelled with Clip-Red); test: cell-based TR-FRET (Tag-lite) on HEK293 cells co-transfected with PD1-SNAP (Lumi4-Tb) and Tim3-CLIP (Clip-Red), 1 h at 4 C; signal needs both receptors bound at once by one antibody; mean +/- SD, n=3
T8 construct: The plasmid encodes residues 1-202 including the signal peptide; also called CLIP-tagged TIM3

Row | Binder | EC50 [1] | IFN-gamma release in MLR at 1 µg/ml antibody, % of rec hu IL-2 (20 EU/ml) = 100% [2] | IFN-gamma release in MLR at 10 µg/ml antibody, % of rec hu IL-2 (20 EU/ml) = 100% [2] | IFN-gamma release in MLR at 40 µg/ml antibody, % of rec hu IL-2 (20 EU/ml) = 100% [2] | Kd (human PD1-ECD [7]) | koff (human PD1-ECD [7]) | kon (human PD1-ECD [7]) | Kd (human PD1-ECD [8]) | EC50 [9] | EC50 [10] | Kd (human PD1-ECD [11]) | EC50 [12] | EC50 [13] | EC50 [14] | other results
1 | B1 | 0.069 µg/mL | 18% | 16% | 25% |  |  |  |  |  |  |  |  |  |  | 
2 | B2 | 3.71 µg/mL | 0% | 30% | 35% |  |  |  |  |  |  |  |  |  |  | 
3 | B3 |  |  |  |  |  |  |  |  |  |  |  |  |  |  | EC50 [3]: 0.08 nM; Kd (human PD1-ECD [4]): 0.3 nM; EC50 of IFN-gamma secretion in MLR, donors D1 + D3 [5]: 6.8 nM; EC50 of IFN-gamma secretion in MLR, donors D2 + D4 [5]: 5.7 nM; Kd (monomeric human Tim3-ECD): 240 nM; EC50 [6]: 0.19 nM
4 | B4 | 0.073 µg/mL | 101% | 108% | 112% |  |  |  |  |  |  |  |  |  |  | 
5 | B5 |  |  |  |  | 1.8 nM | 0.000345 s⁻¹ | 195000 M⁻¹ s⁻¹ | 1.5 nM | 8.3 ng/mL | 0.08 nM | 1.8 nM | 10.1 ng/mL | 0.011 µg/mL | 0.1 nM | 
6 | B6 |  |  |  |  | 1.5 nM | 0.000291 s⁻¹ | 189000 M⁻¹ s⁻¹ | 1.7 nM | 7.9 ng/mL | 0.04 nM | 1.5 nM | 7.3 ng/mL | 0.01 µg/mL | 0.06 nM | 
7 | B7 |  |  |  |  | 2.3 nM | 0.000367 s⁻¹ | 160000 M⁻¹ s⁻¹ | 1.9 nM | 11 ng/mL | 0.06 nM | 2.3 nM | 10.8 ng/mL | 0.015 µg/mL | 0.07 nM | 
8 | B8 |  |  |  |  | 1.5 nM | 0.000279 s⁻¹ | 187000 M⁻¹ s⁻¹ | 1.6 nM | 8.3 ng/mL | 0.05 nM | 1.5 nM | 7.7 ng/mL | 0.011 µg/mL | 0.07 nM | 
9 | B9 |  |  |  |  |  |  |  |  |  |  |  |  |  |  | binding result [15]: binds; Kd (monomeric human Tim3-ECD): 332 nM
